Results as given in US20150079071A1 (University of California, published 2015).
Blank lines part the entries; values can stand above or below the binder they belong to.

Key:
[1] = target: T1, heat-shock protein 90β (HSP90β), endogenous, in conditioned medium of SCp2 cells (mouse, UniProt P11499 2-724); assay: reverse co-IP of HSP90β protein complexes from CM of control SCp2 cells, Western blot
T1 construct: also called HSP90b; extracellular HSP90β
Experimental: For co-IP of HSP90β protein complexes, CM was incubated with 10 μg of control rabbit IgG or anti-HSP90β antibody for 16 h at 4° C. Precipitation was performed with protein G sepharose beads (17-0618-01, GE Healthcare) for 4 h at 4° C. The beads were then washed three times with 0.05% Tween/PBS, and the immune complexes were directly eluted with electrophoresis sample buffer and analyzed by Western blotting.

[2] = target: T2, Itgb1 (endogenous mouse integrin-beta1 of EpH4 mammary epithelial cells) (mouse, UniProt P09055 21-798); assay: anti-FLAG M2 bead IP from EpH4 lysate, Western blot for Itgb1
T2 construct: Endogenous protein in EpH4 cell lysate; also called integrin-β1
T2 sequence (P09055 21-798 limits assumed): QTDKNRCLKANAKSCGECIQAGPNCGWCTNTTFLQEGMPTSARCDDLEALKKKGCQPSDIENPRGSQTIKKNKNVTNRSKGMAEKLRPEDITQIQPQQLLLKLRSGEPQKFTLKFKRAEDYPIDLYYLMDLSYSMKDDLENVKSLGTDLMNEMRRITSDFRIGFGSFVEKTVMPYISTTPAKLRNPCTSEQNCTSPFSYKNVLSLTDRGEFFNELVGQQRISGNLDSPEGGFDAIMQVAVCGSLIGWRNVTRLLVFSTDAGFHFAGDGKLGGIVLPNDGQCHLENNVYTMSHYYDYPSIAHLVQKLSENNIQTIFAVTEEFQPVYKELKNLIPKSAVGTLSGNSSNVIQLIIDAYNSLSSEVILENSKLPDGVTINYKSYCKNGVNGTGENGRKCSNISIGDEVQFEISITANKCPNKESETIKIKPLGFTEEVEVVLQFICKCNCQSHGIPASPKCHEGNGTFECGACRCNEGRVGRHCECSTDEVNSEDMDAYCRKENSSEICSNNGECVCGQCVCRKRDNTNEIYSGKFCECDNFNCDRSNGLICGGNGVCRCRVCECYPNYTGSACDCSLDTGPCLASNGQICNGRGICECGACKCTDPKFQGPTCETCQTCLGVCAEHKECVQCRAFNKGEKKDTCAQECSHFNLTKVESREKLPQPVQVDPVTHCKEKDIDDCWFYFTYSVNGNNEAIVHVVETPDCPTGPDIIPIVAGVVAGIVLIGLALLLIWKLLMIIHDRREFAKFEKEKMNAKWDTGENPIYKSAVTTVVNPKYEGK
Description: FIG. 14. […] The heat map indicator is presented to show the intensity of the FRET signal. (iv) Quantification of FRET signals. ˜200 FRET signals were quantified on each condition. Data are mean+/−S.E., (****) indicates p<0.001. […] Immuno-complexes are used for IP-WB analysis.

T1 sequence (P11499 2-724 limits assumed): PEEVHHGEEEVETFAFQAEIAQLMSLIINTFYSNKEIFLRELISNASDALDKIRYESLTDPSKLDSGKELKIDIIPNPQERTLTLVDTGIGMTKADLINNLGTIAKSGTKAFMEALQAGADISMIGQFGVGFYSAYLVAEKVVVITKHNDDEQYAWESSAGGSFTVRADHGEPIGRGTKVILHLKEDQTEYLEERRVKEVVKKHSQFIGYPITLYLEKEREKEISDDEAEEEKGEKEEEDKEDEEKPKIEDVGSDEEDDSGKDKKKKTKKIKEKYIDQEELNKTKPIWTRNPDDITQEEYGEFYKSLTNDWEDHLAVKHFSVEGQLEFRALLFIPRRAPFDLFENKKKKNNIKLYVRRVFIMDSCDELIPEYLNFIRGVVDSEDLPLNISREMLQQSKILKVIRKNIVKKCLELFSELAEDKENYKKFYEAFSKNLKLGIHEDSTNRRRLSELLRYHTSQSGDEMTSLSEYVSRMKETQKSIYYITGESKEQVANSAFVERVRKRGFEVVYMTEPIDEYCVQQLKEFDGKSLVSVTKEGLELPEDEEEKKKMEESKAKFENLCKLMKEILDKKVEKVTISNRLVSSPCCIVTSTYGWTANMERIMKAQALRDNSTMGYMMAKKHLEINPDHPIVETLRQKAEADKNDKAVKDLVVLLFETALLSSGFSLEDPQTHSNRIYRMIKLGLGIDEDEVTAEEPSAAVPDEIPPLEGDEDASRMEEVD

binding result [1]: no binding
B1: myristoylated alanine-rich C-kinase substrate (MARCKS), endogenous, in conditioned medium of SCp2 cells (other, mouse, UniProt P26645 2-309, looked up)
chain: GAQFSKTAAKGEATAERPGEAAVASSPSKANGQENGHVKVNGDASPAAAEPGAKEELQANGSAPAADKEEPASGSAATPAAAEKDEAAAATEPGAGAADKEAAEAEPAEPSSPAAEAEGASASSTSSPKAEDGAAPSPSSETPKKKKKRFSFKKSFKLSGFSFKKSKKESGEGAEAEGATAEGAKDEAAAAAGGEGAAAPGEQAGGAGAEGAAGGEPREAEAAEPEQPEQPEQPAAEEPQAEEQSEAAGEKAEEPAPGATAGDASSAAGPEQEAPAATDEAAASAAPAASPEPQPECSPEAPPAPTAE

binding result [2]: no binding
B2: MMP14F-dCAT (FLAG tagged human MMP14, catalytic domain deleted mutant, deletion of Tyr112-Pro312) (enzyme)
chain: not shown
notes: also called MMP14dCAT; not shown: FLAG tag

binding result [1]: no binding
B3: annexin A2 (ANXA2), endogenous, in conditioned medium of SCp2 cells (other, mouse, UniProt P07356 2-339, looked up)
chain: STVHEILCKLSLEGDHSTPPSAYGSVKPYTNFDAERDALNIETAVKTKGVDEVTIVNILTNRSNVQRQDIAFAYQRRTKKELPSALKSALSGHLETVILGLLKTPAQYDASELKASMKGLGTDEDSLIEIICSRTNQELQEINRVYKEMYKTDLEKDIISDTSGDFRKLMVALAKGRRAEDGSVIDYELIDQDARELYDAGVKRKGTDVPKWISIMTERSVCHLQKVFERYKSYSPYDMLESIKKEVKGDLENAFLNLVQCIQNKPLYFADRLYDSMKGKGTRDKVLIRIMVSRSEVDMLKIRSEFKRKYGKSLYYYIQQDTKGDYQKALLYLCGGDD
